Experimental findings from US20230212244A1 (IMMATICS BIOTECHNOLOGIES, published 2023) are described below.

B1: peptide VLYEGVDEV (SEQ ID NO: 120) (peptide)
peptide: VLYEGVDEV
B2: peptide ALLNAILHSA (SEQ ID NO: 132) (peptide)
peptide: ALLNAILHSA
B3: peptide LLLEWKQV (SEQ ID NO: 145) (peptide)
peptide: LLLEVVKQV
notes: also called LLLEVVKQV
B4: peptide RLAELTVDEFLA (SEQ ID NO: 127) (peptide)
peptide: RLAELTVDEFLA
B5: peptide TLQPVDNSTISL (SEQ ID NO: 117) (peptide)
peptide: TLQPVDNSTISL
B6: peptide TLTELRAFL (SEQ ID NO: 147) (peptide)
peptide: TLTELRAFL
B7: peptide AVIEHLERL (SEQ ID NO: 141) (peptide)
peptide: AVIEHLERL
B8: peptide KQFEGTVEI (SEQ ID NO: 138) (peptide)
peptide: KQFEGTVEI
B9: peptide KLGDFGLLVEL (SEQ ID NO: 125) (peptide)
peptide: KLGDFGLLVEL
B10: peptide KTLERSYLL (SEQ ID NO: 123) (peptide)
peptide: KTLERSYLL
B11: peptide RVLPPSALQSV (SEQ ID NO: 124) (peptide)
peptide: RVLPPSALQSV
B12: peptide ILLTIKDDTIYL (SEQ ID NO: 104) (peptide)
peptide: ILLTIKDDTIYL
B13: peptide RTFEKIEEV (SEQ ID NO: 133) (peptide)
peptide: RTFEKIEEV
B14: peptide KLGQVLIYL (SEQ ID NO: 112) (peptide)
peptide: KLGQVLIYL
B15: peptide LLADLKTMV (SEQ ID NO: 118) (peptide)
peptide: LLADLKTMV
B16: peptide ALDGDQMEL (SEQ ID NO: 109) (peptide)
peptide: ALDGDQMEL
B17: peptide MLDDRAYLV (SEQ ID NO: 128) (peptide)
peptide: MLDDRAYLV
B18: peptide TAVGHALVL (SEQ ID NO: 114) (peptide)
peptide: TAVGHALVL
B19: peptide GLGGSQLIDTHL (SEQ ID NO: 130) (peptide)
peptide: GLGGSQLIDTHL
B20: peptide ALIKQLFEA (SEQ ID NO: 1) (peptide)
peptide: ALIKQLFEA
notes: also called ZNF-002
B21: peptide FLLAEDTKV (SEQ ID NO: 13) (peptide)
peptide: FLLAEDTKV
B22: peptide KLQEEIPVL (SEQ ID NO: 135) (peptide)
peptide: KLQEEIPVL
B23: peptide KLLDWHPA (SEQ ID NO: 131) (peptide)
peptide: KLLDVVHPA
B24: peptide SLMGMVLKL (SEQ ID NO: 122) (peptide)
peptide: SLMGMVLKL
B25: peptide LLNDRIWLA (SEQ ID NO: 144) (peptide)
peptide: LLNDRIWLA
B26: peptide FLDKPEDVLL (SEQ ID NO: 14) (peptide)
peptide: FLDKPEDVLL
B27: peptide KLFDIFSQQV (SEQ ID NO: 136) (peptide)
peptide: KLFDIFSQQV
B28: peptide TLAKYLMEL (SEQ ID NO: 126) (peptide)
peptide: TLAKYLMEL
B29: peptide ALSDETWGL (SEQ ID NO: 146) (peptide)
peptide: ALSDETWGL
B30: peptide LVYQFVHPI (SEQ ID NO: 116) (peptide)
peptide: LVYQFVHPI
B31: peptide SLAPNIISQL (SEQ ID NO: 121) (peptide)
peptide: SLAPNIISQL
B32: peptide SLISEKILL (SEQ ID NO: 106) (peptide)
peptide: SLISEKILL
B33: peptide SLAELVPGVGGI (SEQ ID NO: 108) (peptide)
peptide: SLAELVPGVGGI
B34: peptide YLFEKTFNM (SEQ ID NO: 11) (peptide)
peptide: YLFEKTFNM
B35: peptide SLFDVSHML (SEQ ID NO: 115) (peptide)
peptide: SLFDVSHML
B36: peptide ILYDLQQNL (SEQ ID NO: 113) (peptide)
peptide: ILYDLQQNL
B37: peptide LLGELPRLLLL (SEQ ID NO: 110) (peptide)
peptide: LLGELPRLLLL
B38: peptide ILYQTVTGL (SEQ ID NO: 119) (peptide)
peptide: ILYQTVTGL
B39: peptide LLNEILEQV (SEQ ID NO: 140) (peptide)
peptide: LLNEILEQV
B40: peptide ALVQGILERV (SEQ ID NO: 12) (peptide)
peptide: ALVQGILERV
B41: peptide SLVQRVETI (SEQ ID NO: 142) (peptide)
peptide: SLVQRVETI
notes: also called ECT2-001
B42: peptide VLIDVLKEL (SEQ ID NO: 129) (peptide)
peptide: VLIDVLKEL
B43: peptide GVAGGSILKGV (SEQ ID NO: 134) (peptide)
peptide: GVAGGSILKGV
B44: peptide ALLGGGPYML (SEQ ID NO: 107) (peptide)
peptide: ALLGGGPYML
B45: peptide YALDLSTFL (SEQ ID NO: 105) (peptide)
peptide: YALDLSTFL
B46: peptide VLLNEILEQV (SEQ ID NO: 139) (peptide)
peptide: VLLNEILEQV
B47: peptide KLSDVWKEL (SEQ ID NO: 143) (peptide)
peptide: KLSDVWKEL
B48: peptide QLTEIKPLL (SEQ ID NO: 137) (peptide)
peptide: QLTEIKPLL
B49: peptide RMYNKIFAI (SEQ ID NO: 10) (peptide)
peptide: RMYNKIFAI

The target in this experiment is T1, HLA-A*02:01 (human).
T1 construct: MHC class I monomer made peptide-receptive by UV cleavage of a UV-sensitive ligand; also called peptide-receptive MHC molecules
In words: UV-ligand exchange ELISA (anti-β2m), peptide exchange yield grade. The text has this: Candidate peptides for T cell based therapies according to the present invention were further tested for their MHC binding capacity (affinity). The individual peptide-MHC complexes were produced by UV-ligand exchange, where a UV-sensitive peptide is cleaved upon UV-irradiation, and exchanged with the peptide of interest as analyzed. Only peptide candidates that can effectively bind and stabilize the peptide-receptive MHC molecules prevent dissociation of the MHC complexes. To determine the yield of the exchange reaction, an ELISA was performed based on the detection of the light chain (β2m) of stabilized MHC complexes. The assay was performed as generally described in Rodenko et al. (Rodenko et al., 2006).
96 well MAXISorp plates (NUNC) were coated over night with 2ug/ml streptavidin in PBS at room temperature, washed 4× and blocked for1h at 37° C. in 2% BSA containing blocking buffer. Refolded HLA-A*02:01/MLA-001 monomers served as standards, covering the range of 15-500 ng/ml. Peptide-MHC monomers of the UV-exchange reaction were diluted 100 fold in blocking buffer. Samples were incubated for 1h at 37° C., washed four times, incubated with 2 ug/ml HRP conjugated anti-β2m for 1h at 37° C., washed again and detected with TMB solution that is stopped with […]. Absorption was measured at 450 nm. Candidate peptides that show a high exchange yield (preferably higher than 50%, most preferred higher than 75 %) are generally preferred for a generation and production of antibodies or fragments thereof, and/or T cell receptors or fragments thereof, as they show sufficient avidity to the MHC molecules and prevent dissociation of the MHC complexes.
A general note: ELISA stands for enzyme-linked immunosorbent assay.
On to B1, for which the peptide exchange yield lay in the range of 20 to 50%.
The same measure for B2: 50 to 75%; for B3: 50 to 75%; for B4: 50 to 75%.
The figure for B5 is 20 to 50%; for B6 it is ≥ 75%; for B7 it is ≥ 75%.
The same measure for B8: 50 to 75%.
As to B9, the peptide exchange yield is ≥ 75%.
The same measure for B10: 20 to 50%; for B11: 50 to 75%.
The figure for B12 is 50 to 75%; for B13 it is 20 to 50%.
With B14, the peptide exchange yield lay in the range of 20 to 50%.
Regarding B15, the peptide exchange yield is 50 to 75%.
The same measure for B16: 20 to 50%.
B17 had a peptide exchange yield of 20 to 50%.
The figure for B18 is 10 to 20%; for B19 it is 20 to 50%.
The figure for B20 is 50 to 75%; for B21 it is 50 to 75%; for B22 it is 20 to 50%.
The figure for B23 is 20 to 50%.
For B24, the peptide exchange yield lay within 50 to 75%.
The same measure for B25: 50 to 75%.
The same measure for B26: 20 to 50%; for B27: 50 to 75%; for B28: 50 to 75%.
As to B29, the peptide exchange yield lay within 20 to 50%.
The figure for B30 is 20 to 50%.
The same measure for B31: 50 to 75%; for B32: 50 to 75%.
B33 displayed a peptide exchange yield of 50 to 75%.
The figure for B34 is 50 to 75%; for B35 it is 50 to 75%.
The same measure for B36: 20 to 50%.
As for B37, the peptide exchange yield is 50 to 75%.
The same measure for B38: 20 to 50%.
The figure for B39 is 50 to 75%; for B40 it is 50 to 75%.
The same measure for B41: 50 to 75%.
B42 yielded a peptide exchange yield of 50 to 75%.
The same measure for B43: ≥ 75%; for B44: 50 to 75%; for B45: 50 to 75%.
The figure for B46 is 50 to 75%; for B47 it is 50 to 75%.
The figure for B48 is 50 to 75%.
The molecule B49 had a peptide exchange yield of 50 to 75%.
